Laboratory results published in patent US20230103631A1, “PEPTIDES AS SELECTIVE GIP RECEPTOR AGONISTS” (Sanofi, priority 2020, published 2023).
*1 amine or outer side, *2 acyl side, *3 side chain or, on linkers, in order; H or OH if unused. Where no end group is shown, it is not given here. Side-chain parts run from the residue outwards. [ ]: non-standard residue; d: D form. The star is where a group is joined. C20 diacid = O=C(O)CCCCCCCCCCCCCCCCCCC(=O)*; C18 diacid = O=C(O)CCCCCCCCCCCCCCCCC(=O)*; γGlu = O=C(O)[C@H](CCC(=O)[*:2])N[*:1]; NMeY = CN[C@@H](Cc1ccc(O)cc1)C(=O)O; AEEA = NCCOCCOCC(=O)O; Aib = CC(C)(N)C(=O)O

Columns and labels:
human GLP-1 receptor [1] = biological target: T1, human GLP-1 receptor (human, UniProt P43220 24-463); experiment: displacement of [125I]GLP-1 from hGLP-1R HEK-293 membranes, SPA
T1 construct: whole, on cells; also called hGLP-1R; hGLP-1 receptor

human GIP receptor [2] = biological target: T2, human GIP receptor (human, UniProt P48546 22-466); experiment: cell-based or functional assay
T2 sequence (looked up): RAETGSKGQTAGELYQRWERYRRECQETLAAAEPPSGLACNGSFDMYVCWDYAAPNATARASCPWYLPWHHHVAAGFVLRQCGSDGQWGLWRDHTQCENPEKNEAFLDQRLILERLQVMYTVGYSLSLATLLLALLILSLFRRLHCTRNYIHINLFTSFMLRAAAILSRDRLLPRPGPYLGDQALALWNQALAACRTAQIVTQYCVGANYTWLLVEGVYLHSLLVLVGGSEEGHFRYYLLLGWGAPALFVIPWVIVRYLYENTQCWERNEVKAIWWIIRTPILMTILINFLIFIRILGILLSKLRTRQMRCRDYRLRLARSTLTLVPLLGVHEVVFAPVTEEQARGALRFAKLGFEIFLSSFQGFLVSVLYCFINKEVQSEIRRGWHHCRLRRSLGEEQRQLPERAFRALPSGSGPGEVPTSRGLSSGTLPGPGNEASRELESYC

human GLP-1 receptor [3] = biological target: T1, human GLP-1 receptor; experiment: cell-based or functional assay
human GIP receptor [4] = biological target: T2, human GIP receptor; experiment: cell-based or functional assay; remark: listed apart in the source

| Binder | IC50 (human GLP-1 receptor [1]) [nM] | EC50 hGIPR 0% HSA, cAMP in HEK-293 cells (human GIP receptor [2]) [pM] | EC50 hGIPR 0.1% HSA, cAMP in HEK-293 cells (human GIP receptor [2]) [pM] | EC50 hGLP-1R 0% HSA, cAMP in HEK-293 cells (human GLP-1 receptor [3]) [nM] | hGIPR EC50, cAMP in human adipocytes (human GIP receptor [4]) [nM] | hGIPR Emax, cAMP in human adipocytes (human GIP receptor [4]) [%] |
| --- | --- | --- | --- | --- | --- | --- |
| Y[Aib]EGTFISDLSI[Aib]K([AEEA-AEEA-γGlu-C20 diacid])DRIHQ[Aib]EFIEWLLAQGPSSGAPPPS-NH2 (N-terminus assumed; SMILES CC[C@H](C)[C@H](NC(=O)[C@H](CCCNC(=N)N)NC(=O)[C@H](CC(=O)O)NC(=O)[C@H](CCCCNC(=O)COCCOCCNC(=O)COCCOCCNC(=O)CC[C@H](NC(=O)CCCCCCCCCCCCCCCCCCC(=O)O)C(=O)O)NC(=O)C(C)(C)NC(=O)[C@@H](NC(=O)[C@H](CO)NC(=O)[C@H](CC(C)C)NC(=O)[C@H](CC(=O)O)NC(=O)[C@H](CO)NC(=O)[C@@H](NC(=O)[C@H](Cc1ccccc1)NC(=O)[C@@H](NC(=O)CNC(=O)[C@H](CCC(=O)O)NC(=O)C(C)(C)NC(=O)[C@@H](N)Cc1ccc(O)cc1)[C@@H](C)O)[C@@H](C)CC)[C@@H](C)CC)C(=O)N[C@@H](Cc1c[nH]cn1)C(=O)N[C@@H](CCC(N)=O)C(=O)NC(C)(C)C(=O)N[C@@H](CCC(=O)O)C(=O)N[C@@H](Cc1ccccc1)C(=O)N[C@H](C(=O)N[C@@H](CCC(=O)O)C(=O)N[C@@H](Cc1c[nH]c2ccccc12)C(=O)N[C@@H](CC(C)C)C(=O)N[C@@H](CC(C)C)C(=O)N[C@@H](C)C(=O)N[C@@H](CCC(N)=O)C(=O)NCC(=O)N1CCC[C@H]1C(=O)N[C@@H](CO)C(=O)N[C@@H](CO)C(=O)NCC(=O)N[C@@H](C)C(=O)N1CCC[C@H]1C(=O)N1CCC[C@H]1C(=O)N1CCC[C@H]1C(=O)N[C@@H](CO)C(N)=O)[C@@H](C)CC, Exendin-4 derived synthetic lipidated peptide of formula I) [SEQ ID NO: 7] | 105 | 0.17 | 2.86 | > 10 | 0.3 | 121 |
| [NMeY][Aib]EGTFISDLSI[Aib]K([AEEA-AEEA-γGlu-C18 diacid])DRIHQ[Aib]EFIEWLLAQGPSSGAPPPS-NH2 (N-terminus assumed; SMILES CC[C@H](C)[C@H](NC(=O)[C@H](CCCNC(=N)N)NC(=O)[C@H](CC(=O)O)NC(=O)[C@H](CCCCNC(=O)COCCOCCNC(=O)COCCOCCNC(=O)CC[C@H](NC(=O)CCCCCCCCCCCCCCCCC(=O)O)C(=O)O)NC(=O)C(C)(C)NC(=O)[C@@H](NC(=O)[C@H](CO)NC(=O)[C@H](CC(C)C)NC(=O)[C@H](CC(=O)O)NC(=O)[C@H](CO)NC(=O)[C@@H](NC(=O)[C@H](Cc1ccccc1)NC(=O)[C@@H](NC(=O)CNC(=O)[C@H](CCC(=O)O)NC(=O)C(C)(C)NC(=O)[C@H](Cc1ccc(O)cc1)NC)[C@@H](C)O)[C@@H](C)CC)[C@@H](C)CC)C(=O)N[C@@H](Cc1c[nH]cn1)C(=O)N[C@@H](CCC(N)=O)C(=O)NC(C)(C)C(=O)N[C@@H](CCC(=O)O)C(=O)N[C@@H](Cc1ccccc1)C(=O)N[C@H](C(=O)N[C@@H](CCC(=O)O)C(=O)N[C@@H](Cc1c[nH]c2ccccc12)C(=O)N[C@@H](CC(C)C)C(=O)N[C@@H](CC(C)C)C(=O)N[C@@H](C)C(=O)N[C@@H](CCC(N)=O)C(=O)NCC(=O)N1CCC[C@H]1C(=O)N[C@@H](CO)C(=O)N[C@@H](CO)C(=O)NCC(=O)N[C@@H](C)C(=O)N1CCC[C@H]1C(=O)N1CCC[C@H]1C(=O)N1CCC[C@H]1C(=O)N[C@@H](CO)C(N)=O)[C@@H](C)CC, Exendin-4 derived synthetic lipidated peptide of formula I) [SEQ ID NO: 8] | 186 | 0.19 | 1.37 | > 10 | 0.5 | 116 |
| Y[Aib]EGTFISDLSI[Aib]K([AEEA-AEEA-γGlu-C18 diacid])DRIHQ[Aib]EFIEWLLAQGPSSGAPPPS-NH2 (N-terminus assumed; SMILES CC[C@H](C)[C@H](NC(=O)[C@H](CCCNC(=N)N)NC(=O)[C@H](CC(=O)O)NC(=O)[C@H](CCCCNC(=O)COCCOCCNC(=O)COCCOCCNC(=O)CC[C@H](NC(=O)CCCCCCCCCCCCCCCCC(=O)O)C(=O)O)NC(=O)C(C)(C)NC(=O)[C@@H](NC(=O)[C@H](CO)NC(=O)[C@H](CC(C)C)NC(=O)[C@H](CC(=O)O)NC(=O)[C@H](CO)NC(=O)[C@@H](NC(=O)[C@H](Cc1ccccc1)NC(=O)[C@@H](NC(=O)CNC(=O)[C@H](CCC(=O)O)NC(=O)C(C)(C)NC(=O)[C@@H](N)Cc1ccc(O)cc1)[C@@H](C)O)[C@@H](C)CC)[C@@H](C)CC)C(=O)N[C@@H](Cc1c[nH]cn1)C(=O)N[C@@H](CCC(N)=O)C(=O)NC(C)(C)C(=O)N[C@@H](CCC(=O)O)C(=O)N[C@@H](Cc1ccccc1)C(=O)N[C@H](C(=O)N[C@@H](CCC(=O)O)C(=O)N[C@@H](Cc1c[nH]c2ccccc12)C(=O)N[C@@H](CC(C)C)C(=O)N[C@@H](CC(C)C)C(=O)N[C@@H](C)C(=O)N[C@@H](CCC(N)=O)C(=O)NCC(=O)N1CCC[C@H]1C(=O)N[C@@H](CO)C(=O)N[C@@H](CO)C(=O)NCC(=O)N[C@@H](C)C(=O)N1CCC[C@H]1C(=O)N1CCC[C@H]1C(=O)N1CCC[C@H]1C(=O)N[C@@H](CO)C(N)=O)[C@@H](C)CC, Exendin-4 derived synthetic lipidated peptide of formula I) [SEQ ID NO: 4] | 144 | 0.12 | 0.88 | > 10 | 0.5 | 116 |
| Y[Aib]EGTFISDLSI[Aib]K([AEEA-AEEA-γGlu-C18 diacid])DRIHQEEFIEWLLAQGPSSGAPPPS-OH (N-terminus assumed; SMILES CC[C@H](C)[C@H](NC(=O)[C@H](Cc1ccccc1)NC(=O)[C@H](CCC(=O)O)NC(=O)[C@H](CCC(=O)O)NC(=O)[C@H](CCC(N)=O)NC(=O)[C@H](Cc1c[nH]cn1)NC(=O)[C@@H](NC(=O)[C@H](CCCNC(=N)N)NC(=O)[C@H](CC(=O)O)NC(=O)[C@H](CCCCNC(=O)COCCOCCNC(=O)COCCOCCNC(=O)CC[C@H](NC(=O)CCCCCCCCCCCCCCCCC(=O)O)C(=O)O)NC(=O)C(C)(C)NC(=O)[C@@H](NC(=O)[C@H](CO)NC(=O)[C@H](CC(C)C)NC(=O)[C@H](CC(=O)O)NC(=O)[C@H](CO)NC(=O)[C@@H](NC(=O)[C@H](Cc1ccccc1)NC(=O)[C@@H](NC(=O)CNC(=O)[C@H](CCC(=O)O)NC(=O)C(C)(C)NC(=O)[C@@H](N)Cc1ccc(O)cc1)[C@@H](C)O)[C@@H](C)CC)[C@@H](C)CC)[C@@H](C)CC)C(=O)N[C@@H](CCC(=O)O)C(=O)N[C@@H](Cc1c[nH]c2ccccc12)C(=O)N[C@@H](CC(C)C)C(=O)N[C@@H](CC(C)C)C(=O)N[C@@H](C)C(=O)N[C@@H](CCC(N)=O)C(=O)NCC(=O)N1CCC[C@H]1C(=O)N[C@@H](CO)C(=O)N[C@@H](CO)C(=O)NCC(=O)N[C@@H](C)C(=O)N1CCC[C@H]1C(=O)N1CCC[C@H]1C(=O)N1CCC[C@H]1C(=O)N[C@@H](CO)C(=O)O, Exendin-4 derived synthetic lipidated peptide of formula I) [SEQ ID NO: 11] | 288 | 0.19 | 2.24 | > 10 | 1 | 122 |
| Y[Aib]EGTFISDLSI[Aib]K([AEEA-AEEA-γGlu-C20 diacid])DRIHQEEFIEWLLAQGPSSGAPPPS-NH2 (N-terminus assumed; SMILES CC[C@H](C)[C@H](NC(=O)[C@H](Cc1ccccc1)NC(=O)[C@H](CCC(=O)O)NC(=O)[C@H](CCC(=O)O)NC(=O)[C@H](CCC(N)=O)NC(=O)[C@H](Cc1c[nH]cn1)NC(=O)[C@@H](NC(=O)[C@H](CCCNC(=N)N)NC(=O)[C@H](CC(=O)O)NC(=O)[C@H](CCCCNC(=O)COCCOCCNC(=O)COCCOCCNC(=O)CC[C@H](NC(=O)CCCCCCCCCCCCCCCCCCC(=O)O)C(=O)O)NC(=O)C(C)(C)NC(=O)[C@@H](NC(=O)[C@H](CO)NC(=O)[C@H](CC(C)C)NC(=O)[C@H](CC(=O)O)NC(=O)[C@H](CO)NC(=O)[C@@H](NC(=O)[C@H](Cc1ccccc1)NC(=O)[C@@H](NC(=O)CNC(=O)[C@H](CCC(=O)O)NC(=O)C(C)(C)NC(=O)[C@@H](N)Cc1ccc(O)cc1)[C@@H](C)O)[C@@H](C)CC)[C@@H](C)CC)[C@@H](C)CC)C(=O)N[C@@H](CCC(=O)O)C(=O)N[C@@H](Cc1c[nH]c2ccccc12)C(=O)N[C@@H](CC(C)C)C(=O)N[C@@H](CC(C)C)C(=O)N[C@@H](C)C(=O)N[C@@H](CCC(N)=O)C(=O)NCC(=O)N1CCC[C@H]1C(=O)N[C@@H](CO)C(=O)N[C@@H](CO)C(=O)NCC(=O)N[C@@H](C)C(=O)N1CCC[C@H]1C(=O)N1CCC[C@H]1C(=O)N1CCC[C@H]1C(=O)N[C@@H](CO)C(N)=O, Exendin-4 derived synthetic lipidated peptide of formula I) [SEQ ID NO: 10] | 223 | 0.25 | 5.37 | > 10 | 0.4 | 127 |
